B1: MCOLN1 (parent)
chain: EEEDLRRRLKYFFMSPCDKFRAKG
B2: VAMP4 (parent)
chain: FLRGPSGPRFGPRNDKIKHVQNQV

Variants of: B1
Experiment: protein stability index of a GFP-peptide fusion (GPS, HEK-293T) (PSI 1-6); higher = more stable
Settings: c terminus: a fixed tail appended
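Also: lentivirally expressed fusions sorted by FACS into six bins by GFP to DsRed ratio, PSI derived from sequencing read proportions per bin multiplied by bin number.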

Variant	protein stability index
EEEDLRRRLKYFPMSPCDKFRAKG [F13P]	3.97
EEEDLRRRLKYFNMSPCDKFRAKG [F13N]	3.77
EEEDLRRRLKYFYMSPCDKFRAKG [F13Y]	3.81
EEEDLRRRLKYFRMSPCDKFRAKG [F13R]	3.54
EEEDLRRRLKYFSMSPCDKFRAKG [F13S]	3.37
EEEDLRRRLKYFWMSPCDKFRAKG [F13W]	3
EEEDLRRRLKYFIMSPCDKFRAKG [F13I]	3.15
EEEDLRRRLPYFFMSPCDKFRAKG [K10P]	2.79
EEEDLRRRLSYFFMSPCDKFRAKG [K10S]	2.3
EEEDLRRRLWYFFMSPCDKFRAKG [K10W]	2.1
EEEDLRRRLIYFFMSPCDKFRAKG [K10I]	1.62
EEEDLRRRLDYFFMSPCDKFRAKG [K10D]	3.41
EEEDLRRRLYYFFMSPCDKFRAKG [K10Y]	1.67
EEEDLRRRLTYFFMSPCDKFRAKG [K10T]	2.15
EEEDLRRRLKYFFMSPCDKFRGKG [A22G]	2.67
EEEDLRRRLKYFFMSPCDKFRFKG [A22F]	2.29
EEEDLRRRLKYFFMSPCDKFRRKG [A22R]	1.95
EEEDLRRRLKYFFMSPCDKFREKG [A22E]	2.18
EEEDLRRRLKYFFMSPCDKFRLKG [A22L]	1.85
EEEDLRRRLKYFFMSPCDKFRAKR [G24R]	1.73
EEEDLRRRLKYFFMSPCDKFRAKW [G24W]	1.33
EEEDLRRRLKYFFMSPCDKFRAKN [G24N]	2.35

Variant	protein stability index
EEEDLRRRLKYFFMSPCDKFRAKS [G24S]	2.57
EEEDLRRRLKYFFMSPCDKFRAKT [G24T]	2.52
EEEDLRRRLKYFFMSPCDKFRAKV [G24V]	2.29
EEEDLRRRLKYFFMSPCDKFRAKF [G24F]	1.8
EEEDLRRRLKYFFMSPCDKFRAKE [G24E]	3.07
EEEDLRRRLKYFFMSPCDKFRAKY [G24Y]	1.78
EEEDLRRRLKYFFMSPCDKFRAKL [G24L]	2.55
EEEDLRRRLKYFFMSPCDKFRAKK [G24K]	3.11
EEEDLRRRLKYFFMSPCDKFRAKH [G24H]	2.07
EEYDLRRRLKYFFMSPCDKFRAKG [E3Y]	1.85
EEIDLRRRLKYFFMSPCDKFRAKG [E3I]	1.64
EEADLRRRLKYFFMSPCDKFRAKG [E3A]	1.62
EESDLRRRLKYFFMSPCDKFRAKG [E3S]	2.9
EELDLRRRLKYFFMSPCDKFRAKG [E3L]	1.37
EEGDLRRRLKYFFMSPCDKFRAKG [E3G]	2.12
EETDLRRRLKYFFMSPCDKFRAKG [E3T]	1.52
EERDLRRRLKYFFMSPCDKFRAKG [E3R]	2.15
EEEDLRRRLKYFFMSPNDKFRAKG [C17N]	2.89
EEEDLRRRLKYFFMSPDDKFRAKG [C17D]	3.08
EEEDLRRRLKYFFMSPGDKFRAKG [C17G]	2.69
EEEDLRRRLKYFFMSPFDKFRAKG [C17F]	2.1
EEEDLRRRLKYFFMSDCDKFRAKG [P16D]	3.12

Variant	protein stability index
EEEDLRRRLKYFFMSGCDKFRAKG [P16G]	1.92
EEEDLRRRLKYFFMSECDKFRAKG [P16E]	1.87
EEEDLRRRLKYFFMSMCDKFRAKG [P16M]	1.78
EEEDLRRRLKYFFMSFCDKFRAKG [P16F]	2.2
EEEDLRRRLKYFFTSPCDKFRAKG [M14T]	2.79
EEEDLRRRLKYFFCSPCDKFRAKG [M14C]	2.24
EEEDLRRRLKYFFVSPCDKFRAKG [M14V]	2.66
EEEDLRRRLKYFFGSPCDKFRAKG [M14G]	3.56
EEEDLRRRLKYFFMSPCDCFRAKG [K19C]	2.33
EEEDLRRRLKYFFMSPCDLFRAKG [K19L]	2.14
EEEDLRRRLKYFFMSPCDVFRAKG [K19V]	2.51
EEEDLRRRLKYFFMSPCDSFRAKG [K19S]	2.4
EEEDLRRRLKYFFMSPCDEFRAKG [K19E]	2.94
EEEDLRRRLKYFFMSPCDWFRAKG [K19W]	1.69
EEEDLRRRLKYFFMSPCDIFRAKG [K19I]	1.74
EEEDLRRRLKYFFMSPCDDFRAKG [K19D]	2.45
EEEDLRRRLKYFFMSPCDAFRAKG [K19A]	2.21
EEEDLRRRLKYFFMSPCDMFRAKG [K19M]	2.27
WEEDLRRRLKYFFMSPCDKFRAKG [E1W]	2.2
TEEDLRRRLKYFFMSPCDKFRAKG [E1T]	3.34
MEEDLRRRLKYFFMSPCDKFRAKG [E1M]	2.08
REEDLRRRLKYFFMSPCDKFRAKG [E1R]	1.36

Variant	protein stability index
FEEDLRRRLKYFFMSPCDKFRAKG [E1F]	2.29
YEEDLRRRLKYFFMSPCDKFRAKG [E1Y]	2.27
KEEDLRRRLKYFFMSPCDKFRAKG [E1K]	1.76
EEEDPRRRLKYFFMSPCDKFRAKG [L5P]	3.17
EEEDRRRRLKYFFMSPCDKFRAKG [L5R]	3.72
EEEDARRRLKYFFMSPCDKFRAKG [L5A]	2.91
EEEDHRRRLKYFFMSPCDKFRAKG [L5H]	3.31
EEEDMRRRLKYFFMSPCDKFRAKG [L5M]	2.32
EEEDDRRRLKYFFMSPCDKFRAKG [L5D]	3.43
EEEDFRRRLKYFFMSPCDKFRAKG [L5F]	3.09
EEEDCRRRLKYFFMSPCDKFRAKG [L5C]	2.82
EEEDLRRRLKYFFMSPCCKFRAKG [D18C]	1.83
EEEDLRRRLKYFFMSPCPKFRAKG [D18P]	1.73
EEEDLRRRLKYFFMSPCLKFRAKG [D18L]	2.32
EEEDLRRRLKYFFMSPCMKFRAKG [D18M]	2.35
EEEDLRRRLKYFFMSPCWKFRAKG [D18W]	2.25
EEEDLRRRLKYFFMSPCAKFRAKG [D18A]	1.91
EEEDLRRRLKYFFMSPCRKFRAKG [D18R]	1.93
EEEDLRRRLKYFFMSPCSKFRAKG [D18S]	2.18

Variants of: B2
Experiment: as above
Settings: c terminus: a fixed tail appended

Variant	protein stability index
GLRGPSGPRFGPRNDKIKHVQNQV [F1G]	3.65
ALRGPSGPRFGPRNDKIKHVQNQV [F1A]	3.87
HLRGPSGPRFGPRNDKIKHVQNQV [F1H]	3.22
LLRGPSGPRFGPRNDKIKHVQNQV [F1L]	3.26
CLRGPSGPRFGPRNDKIKHVQNQV [F1C]	2.85
KLRGPSGPRFGPRNDKIKHVQNQV [F1K]	3.35
ELRGPSGPRFGPRNDKIKHVQNQV [F1E]	3.6
DLRGPSGPRFGPRNDKIKHVQNQV [F1D]	3.75
ILRGPSGPRFGPRNDKIKHVQNQV [F1I]	3.38

— the supplement of paper PMC10567573
